What was measured:
[1] = biological target: fluorescein-labelled CaMKII peptide (Homo sapiens (Human), UniProt Q9UQM7, fluorescein attached to the non-native cysteine added to the N-terminus); assay: fluorescence polarisation/anisotropy; Ca2+ (1 mM CaCl2)
[2] = biological target: fluorescein-labelled PMCA peptide (Bos taurus (Bovine), UniProt D3K0R6, fluorescein attached to the C-terminal native Lys); assay: as above
fluorescein-labelled PMCA peptide, sequence (D3K0R6 1086-1105): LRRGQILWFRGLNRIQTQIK

fluorescein-labelled CaMKII peptide, sequence (Q9UQM7 other isoform, or with tags, fused parts or gaps): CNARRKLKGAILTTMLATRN

binding result [1]: no binding | binding result [2]: no binding
B1: His6-tagged human centrin1 (protein)
chain: MASGFKKPSAASTGQKRKVAPKPELTEDQKQEVREAFDLFDVDGSGTIDAKELKVAMRALGFEPRKEEMKKMISEVDREGTGKISFNDFLAVMTQKMSEKDTKEEILKAFRLFDDDETGKISFKNLKRVANELGENLTDEELQEMIDEADRDGDGEVNEEEFLRIMKKTSLY
